Test results reported in patent US20110300138A1 (published 2011).

Molecular target: TSHR (thyroid stimulating hormone receptor), full length human (human) (UniProt P16473)
Test: negative control; competitor ^125I-K1-70 IgG, TSHR coated tubes; 0.1 µg/mL in assay buffer

For 5B3 IgG (antibody), the Inhibition of binding (%) was -1.2%.
